The supplement of paper PMC9732359
± gives the uncertainty stated by the source.

Experiment: protein stability index of a GFP-peptide fusion (yeast GPS) (PSI 1-4); higher = more stable; sorted into four equal gates, so the index is relative within each strain
Method in brief: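 Mid-log yeast cultures in leucine-free medium, carrying a pooled plasmid library, were sorted into four equal gates by their GFP/Cherry fluorescence ratio. Each plasmid expressed Cherry along with GFP fused upstream of a tiled 17-residue yeast protein peptide. Plasmids recovered from each gate were PCR-amplified and Illumina-sequenced, with reads assigned to strains by barcodes. The protein stability index was obtained by summing each gate's read frequency weighted by its gate number.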

Sequence | protein stability index (doa10∆) | protein stability index (pdr5∆) | protein stability index (san1∆) | protein stability index (ubr1∆)
INFKSREAIRPGHEMED [AAR2] | 3.33 ± 0.097 | 3.28 ± 0.091 | 3.44 ± 0.058 | 3.38 ± 0.084
SNRLHPPDIHPNLGPQL [GRR1] | 3.12 ± 0.074 | 3.09 ± 0.059 | 3.01 ± 0.054 | 2.98 ± 0.049
RNSWNFALIDYFYDLDV [BRN1] | 2.18 ± 0.057 | 1.87 ± 0.05 | 1.33 ± 0.093 | 2.06 ± 0.044
YKGMASNDERIVKRLYE [BRR2] | 3.33 ± 0.085 | 3.47 ± 0.083 | 3.31 ± 0.052 | 3.51 ± 0.047
DFVRNELNDIDTKIDQV [SMC3] | 3.19 ± 0.15 | 3.31 ± 0.11 | 3.12 ± 0.14 | 3.29 ± 0.13
HFFQIDGFNKTFHDELN [YML103C/NUP188] | 1.67 ± 0.07 | 2.04 ± 0.12 | 2.67 ± 0.14 | 2.85 ± 0.091
TTGSIFEKDLMAYFDEN [BRN1] | 2.83 ± 0.055 | 3.15 ± 0.055 | 3.17 ± 0.043 | 3.13 ± 0.033
IEFEYDPWNKLKHTDYW [RPB3] | 2.85 ± 0.1 | 2.69 ± 0.17 | 2.81 ± 0.089 | 3.06 ± 0.089
SQPSKKSFANHTEDEQI [SIR4] | 2.81 ± 0.059 | 2.84 ± 0.052 | 3.08 ± 0.059 | 2.83 ± 0.052
WPTTHKYPLGHFVRDLG [DIS3] | 2.46 ± 0.063 | 2.58 ± 0.086 | 3.07 ± 0.08 | 2.49 ± 0.11
PKASSAKFFLNVSDEQL [ITC1] | 3.1 ± 0.094 | 3.18 ± 0.055 | 3.17 ± 0.063 | 3.23 ± 0.075
PWVVYLQILAMLLLNIF [YMR129W/POM152] | 1.19 ± 0.1 | 1.96 ± 0.072 | 1.18 ± 0.16 | 1.16 ± 0.08
PKNYSLHGLRSFYDAIF [YJL039C/NUP192] | 2.53 ± 0.042 | 2.61 ± 0.041 | 2.37 ± 0.043 | 2.4 ± 0.041
LPSDRCSKAMGDLASLV [RPP1] |  |  | 3.15 ± 0.12 | 
SSKLYQMQQQQQAQAQA [GAL11] | 1.89 ± 0.071 | 2.09 ± 0.051 | 1.9 ± 0.082 | 1.82 ± 0.057
NAYASFLQRQGKLEVPG [RPS19A] |  | 3.24 ± 0.19 | 3.21 ± 0.12 | 3.2 ± 0.094
DIQAMCTEAGLLALRER [RPT2] | 2.65 ± 0.088 | 3.33 ± 0.12 | 3.33 ± 0.047 | 3.26 ± 0.055
KETVEIGIVDYEAGASH [FAS1] |  | 2.92 ± 0.19 |  | 3.06 ± 0.14
PISAVLRGCKFLQSVDI [GRR1] | 2.08 ± 0.041 | 2.08 ± 0.053 | 1.83 ± 0.052 | 2.01 ± 0.036
FEQFEKFYEEKLWFQLS [RPN9] | 3.08 ± 0.27 | 2.58 ± 0.26 |  | 1.72 ± 0.13

Sequence | protein stability index (doa10∆) | protein stability index (pdr5∆) | protein stability index (san1∆) | protein stability index (ubr1∆)
AVEQLAGCKIDNVDDIG [YDL088C/ASM4] | 2.86 ± 0.075 | 2.64 ± 0.071 | 2.56 ± 0.08 | 2.61 ± 0.047
YQISAYQTRARQKARTD [RPR2] | 2.19 ± 0.027 | 2.31 ± 0.026 | 2.36 ± 0.031 | 2.407 ± 0.023
VGKRVPIVEDRRVKQLD [SIR4] |  |  |  | 3.35 ± 0.26
SASSKEFNFTNLQAKPL [YAR002W/NUP60] | 2.43 ± 0.072 | 2.26 ± 0.068 | 2.46 ± 0.06 | 2.42 ± 0.051
TKKKSKFMTNSTAFVPT [ARP9] | 2.65 ± 0.054 | 2.79 ± 0.045 | 2.47 ± 0.058 | 2.77 ± 0.038
ENALIELKNELAKTKEN [YIL149C/MLP2] | 2.82 ± 0.087 | 2.97 ± 0.07 | 2.98 ± 0.068 | 2.93 ± 0.08
TAEDSWAVISAFFREKG [RPB2] | 3.26 ± 0.12 | 3.02 ± 0.073 | 2.61 ± 0.068 | 2.94 ± 0.063
IMNMIENVEKKEAALKT [SMC2] | 1.76 ± 0.082 | 1.83 ± 0.079 | 1.67 ± 0.092 | 1.69 ± 0.05
VDVFAMPQSGTGVSVEA [RPN11] | 3.1 ± 0.1 | 3.41 ± 0.13 | 3.41 ± 0.076 | 3.05 ± 0.095
EENWDDVEVDDDFTNEL [SEM1] |  | 3.13 ± 0.22 | 3.05 ± 0.2 | 3.3 ± 0.19
RSNDPQSSLSKVDIPLE [NUT2] | 3.02 ± 0.098 | 3.23 ± 0.094 | 3.27 ± 0.056 | 2.93 ± 0.15
SNLAATKSMVKIAEQYS [RPN11] | 2.83 ± 0.075 | 2.73 ± 0.064 | 3.04 ± 0.051 | 2.98 ± 0.063
DIVQYHLELYTSQYGTP [PRE3] | 2.1 ± 0.063 | 1.74 ± 0.058 | 1.77 ± 0.07 | 2 ± 0.042
HSLAYLLENFANFKTSK [RRP6] | 2.68 ± 0.22 | 2.05 ± 0.14 | 2.81 ± 0.19 | 2.53 ± 0.17
MPRLEEIDDFNDIDDLD [SEC65] | 2.71 ± 0.1 | 3.09 ± 0.1 | 2.9 ± 0.088 | 3.23 ± 0.12
FLQGESPFSITFSVYHE [YMR129W/POM152] | 2.4 ± 0.073 | 2.08 ± 0.056 | 2.64 ± 0.047 | 2.36 ± 0.052
GRRLSMLASQANGGSTI [DSN1] | 2.1 ± 0.057 | 2.7 ± 0.074 | 2.42 ± 0.071 | 2.29 ± 0.047
MKVEVDSFSGAKIYPGR [RPL24B] | 3.11 ± 0.18 | 3.36 ± 0.15 | 2.52 ± 0.18 | 2.92 ± 0.18
PIMFQDFDDSTAQEINF [IRR1] | 2.81 ± 0.057 | 2.92 ± 0.059 | 2.52 ± 0.053 | 2.88 ± 0.043
